B1: AB403 (antibody, V domains shown)
VH: EVQLVESGGGLVQPGGSLRLSCAASGFTFSNYGMHWIRQAPGKGLEWIAMIYYDSSKMNYADTVKGRFTISRDNAKNSLYLQMNSLRAEDTAVYYCAVPTSHYVVDVWGQGTTVTVSS
VL: EIVMTQSPATLSVSPGERATLSCQASQDIGNWLAWYQQKPGQSPRLLIYGATSLADGVPARFSGSRSGTEFTLTISSLQSEDFAVYYCLQAYNTPWTFGGGTKVEIKR
notes: humanized variant of AB221; constant regions not assigned; also called TfR(AB403)
B2: AB405 (antibody, V domains shown)
VH: QVQLVQSGAEVKKPGASVKVSCKASGFTFSNYGMHWIRQAPGQGLEWIAMIYYDSSKMNYADTVKGRFTITRDNSTNTLYMELSSLRSEDTAVYYCAVPTSHYVVDVWGQGTTVTVSS
VL: B1 VL
notes: constant regions not assigned; also called TfR(AB405)
B3: AB402 (antibody, V domains shown)
VH: B1 VH
VL: AIQMTQSPSSLSASVGDRVTITCQASQDIGNWLAWYQQKPGKSPKLLIYGATSLADGVPSRFSGSRSGTDFTLTISSLQPEDFATYYCLQAYNTPWTFGGGTKVEIKR
notes: humanized variant of AB221; also called TfR(AB402)
B4: AB221 (antibody, V domains shown)
VH: EVQLVESGGGLVQPGNSLTLSCVASGFTFSNYGMHWIRQAPKKGLEWIAMIYYDSSKMNYADTVKGRFTISRDNSKNTLYLEMNSLRSEDTAMYYCAVPTSHYVVDVWGQGVSVTVSS
VL: DIQMTQSPASLSASLEEIVTITCQASQDIGNWLAWYQQKPGKSPQLLIYGATSLADGVPSRFSGSRSGTQFSLKISRVQVEDIGIYYCLQAYNTPWTFGGGTKLELKR
notes: the assays detect/capture with anti-human IgG reagents; constant regions not assigned; also called TfR(AB221); anti-mouse TfR(AB221) antibody
B5: DVD2668 (bispecific antibody)
VH: EVQLVESGGGLVQPGNSLTLSCVASGFTFSNYGMHWIRQAPKKGLEWIAMIYYDSSKMNYADTVKGRFTISRDNSKNTLYLEMNSLRSEDTAMYYCAVPTSHYVVDVWGQGVSVTVSSASTKGPSVFPLAPEVQLLESGGGLVQPGGSLRLSCAASGFTFSNYGMSWVRQAPGKGLEWVASIRSGGGRTYYSDNVKGRFTISRDNSKNTLYLQMNSLRAEDTAVYYCVRYDHYSGSSDYWGQGTLVTVSS
VL: DIQMTQSPASLSASLEEIVTITCQASQDIGNWLAWYQQKPGKSPQLLIYGATSLADGVPSRFSGSRSGTQFSLKISRVQVEDIGIYYCLQAYNTPWTFGGGTKLELKRTVAAPDVVMTQSPLSLPVTPGEPASISCKSSQSLLDSDGKTYLNWLLQKPGQSPQRLIYLVSKLDSGVPDRFSGSGSGTDFTLKISRVEAEDVGVYYCWQGTHFPRTFGQGTKVEIKR
notes: DVD-Ig, outer AB221 (TfR), inner AB043 (APP/Abeta), HG-long/LK-short; dual variable regions only; constant regions not assigned; also called TfRLSAbeta DVD2668
B6: DVD2671 (bispecific antibody)
VH: EVQLLESGGGLVQPGGSLRLSCAASGFTFSNYGMSWVRQAPGKGLEWVASIRSGGGRTYYSDNVKGRFTISRDNSKNTLYLQMNSLRAEDTAVYYCVRYDHYSGSSDYWGQGTLVTVSSASTKGPSVFPLAPEVQLVESGGGLVQPGNSLTLSCVASGFTFSNYGMHWIRQAPKKGLEWIAMIYYDSSKMNYADTVKGRFTISRDNSKNTLYLEMNSLRSEDTAMYYCAVPTSHYVVDVWGQGVSVTVSS
VL: DVVMTQSPLSLPVTPGEPASISCKSSQSLLDSDGKTYLNWLLQKPGQSPQRLIYLVSKLDSGVPDRFSGSGSGTDFTLKISRVEAEDVGVYYCWQGTHFPRTFGQGTKVEIKRTVAAPDIQMTQSPASLSASLEEIVTITCQASQDIGNWLAWYQQKPGKSPQLLIYGATSLADGVPSRFSGSRSGTQFSLKISRVQVEDIGIYYCLQAYNTPWTFGGGTKLELK
notes: DVD-Ig; also called AbetaLSTfR DVD2671

Legend:
[1] = biological target: T1, mouse Transferrin Receptor overexpressed on Hek 293 cells (mouse, UniProt Q62351 1-763); assay: mTFR binding cell-based assay
T1 construct: whole, on cells; also called Hek293/mTfR; 293/mTFR
Procedure: (§1) Meso-scale Discovery (MSD) Electrochemiluminescesnce (ECL) assays to screen for antibodies or DVDs that bind a desired target antigen expressed on the cell surface were performed as follows: Hek 293 cells overexpressing mouse Transferin Receptor were added onto MSD 96-well plates (MSD Cat# L11 XB-3, lot#2290-EA) which were blocked using blocking buffer (30% FBS Serum (Hyclone) in PBS) at 37° C. for 1 hr. After incubating at RT for 30 min with mild agitation, plates were washed with DPBS 3 times and Abs/DVDs (10,000 ng/ml) were added. After incubating for 1 hr at RT, plates were washed 3 times with DPBS and 25 ul of Goat anti human Sulfo TAG (MSD Cat# R32AC-, Lot# W001162) at 1 μg/ml is added. Following a 1 h incubation at RT for 1 hr, plates are washed and MSD read buffer is added before reading on MSD SECTOR Imager 6000. EC50 values are obtained using Xlfit4 software package

[2] = biological target: T1, mouse Transferrin Receptor …; assay: cell-based MSD-ECL binding on Hek293 cells overexpressing mouse TfR
Procedure: as §1

rmTfR (123-763) = biological target: T2, rmTfR (123-763) (mouse, UniProt Q62351 123-763); assay: Biacore SPR, antibody captured via anti-human Fc, rmTfR (123-763) in solution
T2 construct: range 123-763; also called recombinant mouse transferrin receptor 123-763
Procedure: (§2) The BIACORE assay (Biacore, Inc, Piscataway, N.J.) was used to determine the affinity of antibodies or DVD-Ig™ with kinetic measurements of on-rate and off-rate constants. Binding of antibodies or DVD-Ig™ to a target antigen (for example, a purified recombinant target antigen) was determined by surface plasmon resonance-based measurements with a Biacore® 1000 or 3000 instrument (Biacore® AB, Uppsala, Sweden) using running HBS-EP (10 mM HEPES [pH 7.4], 150 mM NaCl, 3 mM EDTA, and 0.005% surfactant P20) at 25° C. All chemicals were obtained from Biacore® AB (Uppsala, Sweden) or otherwise from a different source as described in the text. For example, approximately 5000 RU of goat anti-human IgG, (Fcγ), fragment specific polyclonal antibody (Pierce Biotechnology Inc, Rockford, Ill.) diluted in 10 mM sodium acetate (pH 4.5) was directly immobilized across a CM5 research grade biosensor chip using a standard amine coupling kit according to manufacturer's instructions and procedures at 25 μg/ml. Unreacted moieties on the biosensor surface are blocked with ethanolamine. Modified carboxymethyl dextran surface in flowcell 2 and 4 is used as a reaction surface. Unmodified carboxymethyl dextran without goat anti-human IgG in flow cell 1 and 3 is used as the reference surface. For kinetic analysis, rate equations derived from the 1:1 Langmuir binding model were fitted simultaneously to association and dissociation phases of all eight injections (using global fit analysis) with the use of Biaevaluation 4.0.1 software. Purified antibodies or DVD-Ig™ were diluted in HEPES-buffered saline for capture across goat anti-human IgG specific reaction surfaces. Antibodies or DVD-Ig™ to be captured as a ligand (25 μg/ml) were injected over reaction matrices at a flow rate of 5 μl/min. The association and dissociation rate constants, kon (M⁻¹s⁻¹) and koff (s⁻¹) are determined under a continuous flow rate of 25 μl/min. Rate constants are derived by making kinetic binding measurements at different antigen concentrations ranging from 10-200 nM. The equilibrium dissociation constant (M) of the reaction between antibodies or DVD-Ig™s and the target antigen is then calculated from the kinetic rate constants by the following formula: KD=koff/kon. Binding is recorded as a function of time and kinetic rate constants are calculated.

[3] = biological target: T1, mouse Transferrin Receptor …; assay: TfR binding EC50 column of Table 8 (cell-based assay; repeats Table 7)
Procedure: as §1

rmTfR (119-763) = biological target: T3, rmTfR (119-763) (mouse, UniProt Q62351 119-763); assay: Biacore SPR, antibody captured via anti-human Fc, rmTfR (119-763) in solution
T3 construct: range 119-763; also called recombinant mouse transferrin receptor 119-763
Procedure: as §2, with “Antibodies or DVD-Ig™ to be captured as a ligand (25 μg/ml) were injected over reaction matrices at a flow rate of 5 μl/min.” left out, “Rate constants are derived by making kinetic binding measurements at different antigen concentrations ranging from 10-200 nM.” left out

[4] = biological target: T1, mouse Transferrin Receptor …; assay: MSD-ECL assay, column headed IC50 (values match the cell-based mTfR binding EC50 of Table 7)

T2 sequence (Q62351 123-763): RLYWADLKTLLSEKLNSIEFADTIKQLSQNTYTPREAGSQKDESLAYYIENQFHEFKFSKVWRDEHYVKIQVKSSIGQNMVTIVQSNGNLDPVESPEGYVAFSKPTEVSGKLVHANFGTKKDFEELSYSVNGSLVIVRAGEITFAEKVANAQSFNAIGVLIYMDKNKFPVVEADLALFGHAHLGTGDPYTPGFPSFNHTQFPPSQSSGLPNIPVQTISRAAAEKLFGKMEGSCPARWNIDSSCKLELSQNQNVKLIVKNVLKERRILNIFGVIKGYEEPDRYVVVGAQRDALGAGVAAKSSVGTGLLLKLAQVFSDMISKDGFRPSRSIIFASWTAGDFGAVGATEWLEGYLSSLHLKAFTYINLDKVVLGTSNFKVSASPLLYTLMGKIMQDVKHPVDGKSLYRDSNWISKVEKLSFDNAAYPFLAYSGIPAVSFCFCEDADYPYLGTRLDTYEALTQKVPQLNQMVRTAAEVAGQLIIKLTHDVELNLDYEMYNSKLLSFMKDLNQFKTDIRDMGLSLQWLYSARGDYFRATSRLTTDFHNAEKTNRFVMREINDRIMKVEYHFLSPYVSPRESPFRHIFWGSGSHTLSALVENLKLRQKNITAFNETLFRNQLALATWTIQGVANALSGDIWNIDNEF
T1 sequence (Q62351 whole entry): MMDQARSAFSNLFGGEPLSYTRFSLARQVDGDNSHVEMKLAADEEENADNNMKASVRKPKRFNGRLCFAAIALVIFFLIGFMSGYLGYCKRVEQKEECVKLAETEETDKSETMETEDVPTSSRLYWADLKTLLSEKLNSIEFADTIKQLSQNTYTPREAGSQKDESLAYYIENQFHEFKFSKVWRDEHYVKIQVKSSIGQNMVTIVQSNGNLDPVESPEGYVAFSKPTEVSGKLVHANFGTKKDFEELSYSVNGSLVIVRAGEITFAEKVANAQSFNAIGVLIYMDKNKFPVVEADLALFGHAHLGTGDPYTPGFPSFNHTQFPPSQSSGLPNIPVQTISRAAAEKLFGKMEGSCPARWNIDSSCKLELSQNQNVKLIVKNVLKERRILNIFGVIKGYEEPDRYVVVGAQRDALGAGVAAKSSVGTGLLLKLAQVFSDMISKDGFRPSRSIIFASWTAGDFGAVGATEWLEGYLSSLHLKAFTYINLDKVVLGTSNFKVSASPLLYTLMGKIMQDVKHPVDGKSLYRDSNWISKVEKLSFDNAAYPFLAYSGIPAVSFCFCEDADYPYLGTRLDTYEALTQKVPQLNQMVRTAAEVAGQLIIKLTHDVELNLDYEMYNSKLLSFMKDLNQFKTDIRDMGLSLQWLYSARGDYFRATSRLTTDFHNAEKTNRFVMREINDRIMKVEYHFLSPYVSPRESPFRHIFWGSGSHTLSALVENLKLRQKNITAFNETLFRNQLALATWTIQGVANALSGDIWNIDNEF
T3 sequence (Q62351 119-763): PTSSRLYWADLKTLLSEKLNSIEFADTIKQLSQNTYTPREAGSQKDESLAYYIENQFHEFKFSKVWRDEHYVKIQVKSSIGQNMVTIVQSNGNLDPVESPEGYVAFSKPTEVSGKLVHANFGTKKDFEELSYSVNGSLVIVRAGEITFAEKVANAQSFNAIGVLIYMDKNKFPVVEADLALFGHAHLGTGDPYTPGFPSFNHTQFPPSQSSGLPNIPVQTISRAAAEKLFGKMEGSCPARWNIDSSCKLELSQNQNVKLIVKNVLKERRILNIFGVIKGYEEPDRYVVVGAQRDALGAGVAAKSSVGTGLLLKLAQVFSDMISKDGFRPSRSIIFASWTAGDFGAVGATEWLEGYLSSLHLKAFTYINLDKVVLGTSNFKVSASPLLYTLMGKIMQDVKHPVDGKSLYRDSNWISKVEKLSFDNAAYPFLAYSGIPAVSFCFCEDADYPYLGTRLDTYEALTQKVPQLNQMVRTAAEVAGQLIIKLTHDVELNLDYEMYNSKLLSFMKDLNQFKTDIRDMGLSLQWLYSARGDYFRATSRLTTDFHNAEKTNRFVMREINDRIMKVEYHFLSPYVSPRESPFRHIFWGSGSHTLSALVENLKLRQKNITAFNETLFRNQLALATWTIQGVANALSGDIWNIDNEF

Binder	EC50 [1] [nM]	EC50 [2] [nM]	Kd (rmTfR (123-763)) [nM]	koff (rmTfR (123-763)) [s⁻¹]	kon (rmTfR (123-763)) [M⁻¹ s⁻¹]	EC50 [3] [nM]	binding result (rmTfR (123-763))	Kd (rmTfR (119-763)) [nM]	koff (rmTfR (119-763)) [s⁻¹]	kon (rmTfR (119-763)) [M⁻¹ s⁻¹]	IC50 [4] [nM]
B1	0.09	0.09	3.8	8.39e-05	22000						
B2	13.6	13.6				13.6	no binding (tested: antigen 10-200 nM)				
B3	0.06	0.06	3.7	6.12e-05	16400						
B4	0.12	0.1				0.1		5	0.000181	39400	
B5		0.1									0.1
B6		1.2									1.2
